# Data as given in the supplement of paper PMC10126150.
# ± gives the standard deviation of the averaged measurements.
# Tested on: ATP
# Assay: switch fluorescence ratio, 500 uM ATP over buffer (Cy3 cluster intensity, sum of 5 cycles each) (fold (ratio)); higher = stronger signal-on switching upon ATP binding; sequences stand for … in TCGTCGGCAGCGTCAGATGTGTATAAGAGACAGTTTTTTTTTTTTTTTTTTTTTTTTT…TC
# Settings: aptamer strand: ATP DNA aptamer (quencher-CACCTGGGGGAGTATTGCGGAGGAAGG + anchor), 100 nM annealed; ATP concentration: 500 uM
# How it was run: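 Per cluster, summed Cy3 intensity from the target cycles was divided by that from the buffer cycles to give the fluorescence ratio, then averaged per switch-domain sequence. Clusters outside 100-1000 RFU were excluded. The Cy3-labelled switching-strand clusters, on a modified Illumina MiSeq flow-cell, were annealed to 100 nM quencher-labelled ATP aptamer and imaged in selection buffer, then after 15 min with 500 uM ATP at 22 °C, for five cycles with NaOH stripping and re-annealing between them.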
# 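Note: ATP exposure 15 min at 22 °C before imaging.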
row,Sequence,switch fluorescence ratio
1,GTTAAAAAGA,1.08 ± 0.22
2,GTTAAAAGGT,1 ± 0.039
3,GTTAAAAGTG,0.987 ± 0.03
4,GTTAAAATTT,1.001 ± 0.0014
5,GTTAAATCTT,1 ± 0.042
6,GTTAAGAAAG,1.01 ± 0.012
7,GTTAAGGATT,1.03 ± 0.085
8,GTTAAGGGGT,1.007 ± 0.0026
9,GTTAATGTCC,0.994 ± 0.014
10,GTTAATTACA,1.026 ± 0.0096
11,GTTACAGGTC,1.006 ± 0.0019
12,GTTACATTAA,1.01 ± 0.021
13,GTTACCCGA,0.98 ± 0.016
14,GTTACGGGGA,1.02 ± 0.051
15,GTTACTTGCC,0.992 ± 0.039
16,GTTACTTGCT,1.01 ± 0.059
17,GTTACTTTGT,0.992 ± 0.0075
18,GTTAGCACCC,1.04 ± 0.04
19,GTTAGCCTTG,1 ± 0.039
20,GTTAGGGCGG,0.998 ± 0.042
21,GTTAGGGTAG,0.992 ± 0.025
22,GTTAGGTAGC,0.997 ± 0.011
23,GTTAGTATTG,0.998 ± 0.021
24,GTTAGTCTGA,1.01 ± 0.043
25,GTTAGTGGCA,0.984 ± 0.012

row,Sequence,switch fluorescence ratio
1,GTTAGTGTGC,0.984 ± 0.013
2,GTTAGTTGGT,0.993 ± 0.017
3,GTTAGTTGTT,0.987 ± 0.013
4,GTTATAACCG,0.993 ± 0.024
5,GTTATAAGTC,1.01 ± 0.026
6,GTTATACATT,1.02 ± 0.011
7,GTTATACGAA,1.028 ± 0.0085
8,GTTATATAAG,0.984 ± 0.011
9,GTTATATATG,1.015 ± 0.0029
10,GTTATATGTT,1 ± 0.03
11,GTTATATTTG,0.997 ± 0.031
12,GTTATCCGGG,1.01 ± 0.036
13,GTTATCGGAC,1.01 ± 0.015
14,GTTATCGTGC,0.992 ± 0.059
15,GTTATGCCGG,0.97 ± 0.094
16,GTTATTAGCG,0.969 ± 0.05
17,GTTATTTTCC,1.01 ± 0.071
18,GTTCACGGGA,1 ± 0.058
19,GTTCAGAGGG,1.05 ± 0.1
20,GTTCATACGG,1.06 ± 0.043
21,GTTCCAGAGG,1.03 ± 0.011
22,GTTCCGCGGT,1.371 ± 0.0055
23,GTTCCTTGGA,1.01 ± 0.045
24,GTTCGACTCC,1.15 ± 0.014
25,GTTCGGAGTG,0.9877 ± 0.0086

row,Sequence,switch fluorescence ratio
1,GTTCGGCGAA,1.02 ± 0.024
2,GTTCGGGCTC,1.03 ± 0.019
3,GTTCGGGGAC,1.026 ± 0.0094
4,GTTCGGTATG,0.984 ± 0.033
5,GTTCGGTGGA,1 ± 0.041
6,GTTCGTGTGG,0.987 ± 0.028
7,GTTCTAGGGT,0.9743 ± 0.0042
8,GTTCTCTGGG,0.987 ± 0.034
9,GTTCTGATGT,1.01 ± 0.029
10,GTTCTTGTTC,1.004 ± 0.0069
11,GTTCTTTATC,0.994 ± 0.018
12,GTTCTTTTAT,1.01 ± 0.024
13,GTTGAAACAC,1.02 ± 0.046
14,GTTGAAGCCC,1.013 ± 0.0071
15,GTTGAATTAT,0.987 ± 0.016
16,GTTGACCTCG,0.992 ± 0.03
17,GTTGAGAGTC,0.995 ± 0.038
18,GTTGAGCTGG,0.971 ± 0.019
19,GTTGATAGGA,0.988 ± 0.03
20,GTTGATCCGA,0.971 ± 0.013
21,GTTGCAGGGG,1.08 ± 0.013
22,GTTGCAGTTC,1.01 ± 0.034
23,GTTGCGCGTC,1.03 ± 0.024
24,GTTGCGGTTG,0.986 ± 0.039
25,GTTGCTAGAG,1.006 ± 0.0035

row,Sequence,switch fluorescence ratio
1,GTTGCTAGTG,0.973 ± 0.024
2,GTTGCTTGCG,1 ± 0.02
3,GTTGGAAAGG,0.97 ± 0.039
4,GTTGGAATTG,0.992 ± 0.024
5,GTTGGACAGC,1.01 ± 0.023
6,GTTGGAGGA,1.04 ± 0.061
7,GTTGGAGGCT,0.989 ± 0.096
8,GTTGGAGTTT,0.975 ± 0.016
9,GTTGGATGCT,0.949 ± 0.028
10,GTTGGATTTG,0.994 ± 0.017
11,GTTGGCCGGC,1.11 ± 0.073
12,GTTGGCGACG,0.946 ± 0.012
13,GTTGGCTATT,0.984 ± 0.007
14,GTTGGGACGG,0.9569 ± 0.006
15,GTTGGGACGT,0.973 ± 0.013
16,GTTGGGCGGG,0.991 ± 0.035
17,GTTGGGGCAG,0.961 ± 0.034
18,GTTGGGGGGT,0.989 ± 0.02
19,GTTGGGTAGG,0.963 ± 0.028
20,GTTGGGTATT,1.01 ± 0.021
21,GTTGGGTTTG,0.999 ± 0.026
22,GTTGGGTTTT,1.02 ± 0.06
23,GTTGGTACTT,0.991 ± 0.02
24,GTTGGTATAG,1.01 ± 0.025
25,GTTGGTATTT,0.971 ± 0.023

row,Sequence,switch fluorescence ratio
1,GTTGGTCTGA,0.954 ± 0.022
2,GTTGGTGATT,0.9959 ± 0.0062
3,GTTGGTGGCG,1.02 ± 0.044
4,GTTGGTGGGT,0.98 ± 0.032
5,GTTGGTTAGG,0.959 ± 0.0071
6,GTTGTAAGGT,0.986 ± 0.034
7,GTTGTAGAGT,1.03 ± 0.032
8,GTTGTAGGGG,0.987 ± 0.024
9,GTTGTATCAC,0.9832 ± 0.0097
10,GTTGTCGGGT,1.05 ± 0.12
11,GTTGTCTAAT,0.9991 ± 0.0073
12,GTTGTGAGAG,0.999 ± 0.054
13,GTTGTGCAAT,1.16 ± 0.0012
14,GTTGTGCTGG,1.01 ± 0.018
15,GTTGTGGCTC,0.975 ± 0.036
16,GTTGTGGGGG,1.01 ± 0.049
17,GTTGTGGTTA,1.02 ± 0.015
18,GTTGTGTCGG,1.01 ± 0.019
19,GTTGTGTGGG,0.985 ± 0.035
20,GTTGTTACTG,1.02 ± 0.019
21,GTTGTTAGGG,1 ± 0.0046
22,GTTGTTCAAA,0.989 ± 0.015
23,GTTGTTGCTT,0.982 ± 0.029
24,GTTGTTGGGA,0.9898 ± 0.003
25,GTTGTTGGTG,1.01 ± 0.015

row,Sequence,switch fluorescence ratio
1,GTTGTTTAGT,0.994 ± 0.026
2,GTTGTTTCAG,0.969 ± 0.022
3,GTTGTTTTAA,1.05 ± 0.011
4,GTTTAAAATC,0.99757 ± 0.00014
5,GTTTAAATCC,0.989 ± 0.05
6,GTTTAAATTC,1 ± 0.08
7,GTTTAACGGT,1 ± 0.012
8,GTTTAAGGGC,0.988 ± 0.032
9,GTTTACGGGC,1.03 ± 0.027
10,GTTTATATGT,1.01 ± 0.049
11,GTTTCCAATC,1.02 ± 0.06
12,GTTTCCTGGG,1.03 ± 0.082
13,GTTTCGAGGT,0.96 ± 0.012
14,GTTTCGGGGA,1 ± 0.038
15,GTTTCTAGCT,0.969 ± 0.028
16,GTTTCTGGAG,1.03 ± 0.013
17,GTTTCTGGAT,0.98 ± 0.032
18,GTTTCTTTGG,1.06 ± 0.13
19,GTTTGAACGG,0.993 ± 0.018
20,GTTTGAGATA,0.971 ± 0.035
21,GTTTGAGCAC,1.02 ± 0.023
22,GTTTGAGGCT,1 ± 0.046
23,GTTTGAGTTT,0.996 ± 0.026
24,GTTTGATCTG,0.959 ± 0.026
25,GTTTGATGCG,0.995 ± 0.022

row,Sequence,switch fluorescence ratio
1,GTTTGCCAGG,1.01 ± 0.013
2,GTTTGCTGGG,0.983 ± 0.035
3,GTTTGGAGGA,0.96 ± 0.024
4,GTTTGGATAT,0.963 ± 0.01
5,GTTTGGATGC,0.963 ± 0.03
6,GTTTGGCATA,1.14 ± 0.19
7,GTTTGGCCGT,0.97 ± 0.035
8,GTTTGGGATA,0.992 ± 0.034
9,GTTTGGGGGG,1.04 ± 0.13
10,GTTTGTACCG,1 ± 0.051
11,GTTTGTACGT,0.975 ± 0.038
12,GTTTGTAGTT,0.968 ± 0.037
13,GTTTGTCACC,1.03 ± 0.034
14,GTTTGTGCT,0.988 ± 0.019
15,GTTTGTGTCA,0.993 ± 0.052
16,GTTTGTTACT,0.964 ± 0.052
17,GTTTGTTATC,0.98 ± 0.0057
18,GTTTTAAGGT,1.017 ± 0.0067
19,GTTTTAATTC,0.9628 ± 0.0036
20,GTTTTAGGAG,0.995 ± 0.043
21,GTTTTAGTAG,1.02 ± 0.015
22,GTTTTATAAA,0.9762 ± 0.0028
23,GTTTTATGAT,0.967 ± 0.016
24,GTTTTATTGT,0.955 ± 0.038
25,GTTTTATTTG,1.01 ± 0.025

row,Sequence,switch fluorescence ratio
1,GTTTTCAATT,0.983 ± 0.01
2,GTTTTCAGGG,1.02 ± 0.037
3,GTTTTCAGGT,0.992 ± 0.037
4,GTTTTCCGTC,1 ± 0.013
5,GTTTTCGGAT,0.983 ± 0.013
6,GTTTTCGGTT,1.013 ± 0.0056
7,GTTTTCTGGA,0.9988 ± 0.0057
8,GTTTTCTTGG,0.977 ± 0.013
9,GTTTTGGGAT,1.02 ± 0.031
10,GTTTTTAACT,1.012 ± 0.0075
11,GTTTTTAGAT,0.9709 ± 0.0092
12,GTTTTTATGA,0.973 ± 0.017
13,GTTTTTCCAG,0.9844 ± 0.0061
14,GTTTTTGTTA,0.991 ± 0.036
15,GTTTTTTAAG,0.9877 ± 0.0089
16,GTTTTTTGGG,1 ± 0.042
17,GTTTTTTTTT,1.02 ± 0.07
18,TAAAAAAAGG,1.05 ± 0.067
19,TAAAAAACCG,1.03 ± 0.025
20,TAAAAAAGAT,0.978 ± 0.017
21,TAAAAAAGGA,1.05 ± 0.12
22,TAAAAACGAC,1.04 ± 0.051
23,TAAAAACGGA,0.989 ± 0.042
24,TAAAAACGGG,1.05 ± 0.11
25,TAAAAACGTT,1.07 ± 0.086
